Measured values from patent publication US20160257711A1 (BOARD OF TRUSTEES OF THE UNIVERSITY OF ILLINOIS, published 2016).

Molecular target: T1, integrin αIIbβ3 of human platelets (human, UniProt P08514 32-1039)
T1 construct: whole, on cells; Endogenous receptor; also called integrin β3; glycoprotein IIb-IIIa
Test: co-IP from platelet lysates and GST pull-downs

B1: Gα13 (G protein α subunit), endogenous protein of human platelets (other)
chain: MADFLPSRSVLSVCFPGCLLTSGEAEQQRKSKEIDKCLSREKTYVKRLVKILLLGAGESGKSTFLKQMRIIHGQDFDQRAREEFRPTIYSNVIKGMRVLVDAREKLHIPWGDNSNQQHGDKMMSFDTRAPMAAQGMVETRVFLQYLPAIRALWADSGIQNAYDRRREFQLGESVKYFLDNLDKLGEPDYIPSQQDILLARRPTKGIHEYDFEIKNVPFKMVDVGGQRSERKRWFECFDSVTSILFLVSSSEFDQVLMEDRLTNRLTESLNIFETIVNNRVFSNVSIILFLNKTDLLEEKVQIVSIKDYFLEFEGDPHCLRDVQKFLVECFRNKRRDQQQKPLYHHFTTAINTENIRLVFRDVKDTILHDNLKQLMLQ
notes: Endogenous Gα13 in detergent lysates of washed human platelets, precipitated or detected with anti-Gα13 antibody; also called G protein subunit Gα13
- binding result: binds
